In US20170101472A1 (Regeneron, published 2017):

T1: recombinant human LAG3 expressed with a C-terminal mouse IgG2a mFc tag (human)
T1 construct: Called dimeric; also called hLAG3-mFc; hLAG3 dimer
T1 chain: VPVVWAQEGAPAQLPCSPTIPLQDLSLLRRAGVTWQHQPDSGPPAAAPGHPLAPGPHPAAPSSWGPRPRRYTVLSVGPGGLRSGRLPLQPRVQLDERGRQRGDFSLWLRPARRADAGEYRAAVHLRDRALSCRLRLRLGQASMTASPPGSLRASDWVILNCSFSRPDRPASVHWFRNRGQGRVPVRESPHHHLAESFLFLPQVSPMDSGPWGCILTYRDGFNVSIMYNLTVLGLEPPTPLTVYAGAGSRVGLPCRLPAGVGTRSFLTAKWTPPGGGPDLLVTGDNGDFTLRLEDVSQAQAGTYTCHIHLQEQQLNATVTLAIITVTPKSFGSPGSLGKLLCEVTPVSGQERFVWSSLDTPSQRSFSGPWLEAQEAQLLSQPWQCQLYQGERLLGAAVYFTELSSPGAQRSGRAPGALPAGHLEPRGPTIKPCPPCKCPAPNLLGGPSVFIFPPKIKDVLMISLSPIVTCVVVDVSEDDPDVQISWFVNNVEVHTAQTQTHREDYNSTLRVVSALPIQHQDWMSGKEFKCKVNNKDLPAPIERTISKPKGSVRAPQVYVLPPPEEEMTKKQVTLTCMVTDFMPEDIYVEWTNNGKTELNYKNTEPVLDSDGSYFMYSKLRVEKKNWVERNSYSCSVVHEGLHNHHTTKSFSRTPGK

T2: human LAG3 expressed on HEK293 cells (human, UniProt P18627 23-525)
T2 construct: also called hLAG3; HEK293/hLAG3
T2 sequence: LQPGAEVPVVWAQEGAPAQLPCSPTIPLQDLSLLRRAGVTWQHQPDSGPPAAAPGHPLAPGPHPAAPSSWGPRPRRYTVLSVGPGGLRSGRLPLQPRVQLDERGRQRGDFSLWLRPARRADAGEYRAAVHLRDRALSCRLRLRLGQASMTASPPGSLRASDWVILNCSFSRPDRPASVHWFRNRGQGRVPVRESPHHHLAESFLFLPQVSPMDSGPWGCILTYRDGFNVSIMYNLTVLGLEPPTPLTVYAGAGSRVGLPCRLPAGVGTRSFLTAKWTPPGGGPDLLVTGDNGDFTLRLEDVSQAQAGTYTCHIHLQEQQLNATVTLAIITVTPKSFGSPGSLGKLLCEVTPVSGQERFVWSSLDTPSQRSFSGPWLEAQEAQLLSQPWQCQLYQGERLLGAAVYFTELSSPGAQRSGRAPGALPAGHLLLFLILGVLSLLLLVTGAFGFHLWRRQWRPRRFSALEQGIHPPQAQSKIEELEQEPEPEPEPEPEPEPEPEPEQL


Assays:
[1] = molecular target: T3, recombinant human LAG3 expressed with a C-terminal myc-myc-hexahistidine tag (human, UniProt P18627 29-450); test: SPR, mAb captured, 25 C
T3 construct: also called hLAG3-mmh; hLAG3.mmh
Procedure: (§1) The BiaCore sensor surface was derivatized with either a polyclonal rabbit anti-mouse antibody (GE, # BR-1008-38) or with a monoclonal mouse anti-human Fc antibody (GE, # BR-1008-39) to capture approximately 50-85 RUs of anti-LAG3 monoclonal antibodies, expressed with either a mouse Fc or a human Fc, respectively. […] The binding of the LAG3 reagents to captured monoclonal antibodies was monitored for 4 minutes while their dissociation from the antibodies was monitored for 8 minutes in HBST running buffer (0.01 M HEPES pH 7.4, 0.15 M NaCl, 3 mM EDTA, 0.05% v/v Surfactant P20). Experiments were performed at 25° C. and 37° C. Kinetic association (kₐ) and dissociation (kd) rate constants were determined by processing and fitting the data to a 1:1 binding model using Scrubber 2.0c curve fitting software. Binding dissociation equilibrium constants (KD) and dissociative half-lives (t_{1/2}) were then calculated from the kinetic rate constants as: KD (M)=kd/kₐ and t_{1/2} (min)=[ln2/(60*kd)].

[2] = molecular target: T1, recombinant human LAG3 expressed with a …; test: SPR, mAb captured, 25 C
Procedure: as §1

[3] = molecular target: T2, human LAG3 expressed on HEK293 cells; test: cell adherence assay, blocks RAJI (human MHCII) cells on HEK293-hLAG3
Procedure: Cells were plated into sterile Nunclon™ Delta 96-Well MicroWell™ Black Optical Bottom Plates (Thermo Scientific). The wells from the perimeter of the plate were not included in the assay design to avoid edge effects.
On the day of treatment, all antibodies were serially (1:3) diluted in RPMI media (without FBS or supplements added). The 9-point dilution ranged between 45 pM to 300 nM, with the last dilution point containing no mAb. […] While the plated HEK293-LAG3 cells were incubating with the test or control antibodies, non-adherent B-cells (RAJI or A20) were labeled with Calcein AM using the following procedure. RAJI and A20 suspension cells were harvested and centrifuged at 1,200 rpm for 5 minutes. Cell pellets were resuspended in 1×PBS and counted. Cells were washed with RPMI, and resuspended in RPMI at a concentration of 10⁶ cells per 1 ml. Cells were labeled by adding 5 μL of Calcein AM per 1 ml of cell suspension and incubated for 30 min at 37° C., at 5% CO₂. […] Subsequently, 10 μL of BD Pharmingen Fc Block (0.5 mg/mL) was added per 1 ml of the Calcein AM labeled cells, which were incubated at RT for 10 minutes. The Calcein AM-stained, Fc-blocked RAJI or A20 cells were resuspended in RPMI to a final concentration of 3×10⁶ cells per 1 ml and subsequently used in the adherence assay.
The labeled suspension cells were incubated with the HEK293 monolayer for 1 hour at 37° C., at 5% CO₂.

[4] = molecular target: T3, recombinant human LAG3 expressed with a …; test: SPR, mAb captured, 37 C
Procedure: as §1

[5] = molecular target: T1, recombinant human LAG3 expressed with a …; test: SPR, mAb captured, 37 C
Procedure: as §1

Row | Binder | Kd [1] | koff [1] | kon [1] | t1/2 [1] | Kd [2] | koff [2] | kon [2] | t1/2 [2] | IC50 [3] | Kd [4] | koff [4] | kon [4] | t1/2 [4] | Kd [5] | koff [5] | kon [5] | t1/2 [5]
1 | H4H17819P (antibody, human IgG4, V domains shown, H4H = human IgG4 Fc with S108P hinge mutation) VH: EVQLVESGGGLVQPGGSLRLSCVASGFTFSLYAMTWVRQVPGKGLEWVSTISGSGGGTYYTDSVKGRFTISRDNSKNTLYLQMNSLRADDTAVFYCTKESTTGTYSYFYGMDVWGQGTTVTVSS VL: DIQMTQSPSSLSASVGDRVTITCRASQTISSYLNWYQQKPGKAPKLLIYAASSLQSGVPSRFSGSGSGTDFTLTLSGLQPEDFATYYCQQSYSTPLTFGGGTKVEIK | 0.391 nM | 0.000443 s⁻¹ | 1.13e+06 M⁻¹ s⁻¹ | 26 min | 0.124 nM | 0.00018 s⁻¹ | 1.45e+06 M⁻¹ s⁻¹ | 64.2 min | 17 nM | 0.552 nM | 0.000876 s⁻¹ | 1.59e+06 M⁻¹ s⁻¹ | 13.2 min | 0.317 nM | 0.000527 s⁻¹ | 1.66e+06 M⁻¹ s⁻¹ | 21.9 min
2 | H4H17823P (antibody, human IgG4, V domains shown, H4H = human IgG4 Fc with S108P hinge mutation) VH: EVQLLESGGGLVQPGGSLRLSCAASGFTFRSYAMSWVRQAPGKGLEWVSVISGGGGRTYYTDSVKGRFTISRDNSKSMLYLQMNSLRAEDTAIYYCAKERVTGIDHYYYGVDVWGQGTTVTVSS VL: DIQMTQSPSSLSASVGDRVTITCRASQSISSYLNWYQQKPGKAPKLLIYATSSLQSGVPSRFSGSASGTDFTLAISSLQPEDFATYYCQQSYTTPLTFGGGTKVEIK | 0.429 nM | 0.000447 s⁻¹ | 1.04e+06 M⁻¹ s⁻¹ | 25.8 min | 0.174 nM | 0.000218 s⁻¹ | 1.26e+06 M⁻¹ s⁻¹ | 52.9 min | 8.6 nM | 0.524 nM | 0.000924 s⁻¹ | 1.76e+06 M⁻¹ s⁻¹ | 12.5 min | 0.437 nM | 0.000585 s⁻¹ | 1.34e+06 M⁻¹ s⁻¹ | 19.7 min
3 | H4H17826P2 (antibody, human IgG4, V domains shown, H4H = human IgG4 Fc with S108P hinge mutation) VH: EVQLVESGGGLVQPGGSLRLSCAASGFTFSSYEMNWVRQAPGKGLEWVSYISSSGNTKDYAGSVKGRVTISRDNAKNLLYLQMNSLRAEDTAVYHCARDGGHYDILTGSMSYYYYALDVWGQGTTVTVSS VL: not shown | 10.2 nM | 0.00457 s⁻¹ | 450000 M⁻¹ s⁻¹ | 2.5 min | 0.817 nM | 0.000564 s⁻¹ | 691000 M⁻¹ s⁻¹ | 20.5 min | 27 nM | 1.99 nM | 0.00214 s⁻¹ | 1.07e+06 M⁻¹ s⁻¹ | 5.4 min | 0.277 nM | 0.000547 s⁻¹ | 1.98e+06 M⁻¹ s⁻¹ | 21.1 min
4 | H4H15483P (antibody, human IgG4, V domains shown, H4H = human IgG4 Fc with S108P hinge mutation) VH: QVQLQQWGAGLLPPSETLSLICAVYGGSFSGYYWSWIRQPPGKGLEWIGEINHRGSTNYNPSLKSRATISVDTSKNQFSLKLSSVTAADTAVYYCSRGEDYYDSSGYSYYFDYWGQGTLVTVSS VL: EIVLTQSPATLSLSPGERATLSCRASQSVSSYLAWYQQKPGQAPRLLIYDASNRATGIPARFSGSGSGTDFTLTISSLEPEDFAVYYCQQRSNWPLTFGGGTKVEIK | 1.97 nM | 0.00037 s⁻¹ | 188000 M⁻¹ s⁻¹ | 31.2 min | ≤ 0.00745 nM | ≤ 1e-05 s⁻¹ | 1.34e+06 M⁻¹ s⁻¹ | ≥ 1160 min | 19 nM | 1.43 nM | 0.00111 s⁻¹ | 774000 M⁻¹ s⁻¹ | 10.4 min | 0.215 nM | 0.000298 s⁻¹ | 1.38e+06 M⁻¹ s⁻¹ | 38.8 min
5 | H4H15462P (antibody, human IgG4, V domains shown, H4H = human IgG4 Fc with S108P hinge mutation) VH: QVQLVQSGAEVKKPGASVKVSCKASGYTFTNYYIHWVRQAPGQGLDWMGIINPGGGNTNYAQKFLGRVTMTRDTSTTTVYMELSSLRSEDTAIYYCARENWNSYFDNWGQGTLVTVSS VL: not shown | 5.75 nM | 0.0054 s⁻¹ | 939000 M⁻¹ s⁻¹ | 2.1 min | 1.01 nM | 0.00203 s⁻¹ | 2.02e+06 M⁻¹ s⁻¹ | 5.7 min | 3.2 nM | 5.8 nM | 0.00626 s⁻¹ | 1.08e+06 M⁻¹ s⁻¹ | 1.8 min | 0.415 nM | 0.000895 s⁻¹ | 2.16e+06 M⁻¹ s⁻¹ | 12.9 min

Further lines, results first:

Row | Kd [1] | koff [1] | kon [1] | t1/2 [1] | Kd [2] | koff [2] | kon [2] | t1/2 [2] | IC50 [3] | Kd [4] | koff [4] | kon [4] | t1/2 [4] | Kd [5] | koff [5] | kon [5] | t1/2 [5] | Binder
6 | 2.31 nM | 0.00141 s⁻¹ | 612000 M⁻¹ s⁻¹ | 8.2 min | 0.245 nM | 0.00046 s⁻¹ | 1.88e+06 M⁻¹ s⁻¹ | 25.1 min | 11 nM | 1.89 nM | 0.00207 s⁻¹ | 1.1e+06 M⁻¹ s⁻¹ | 5.6 min | 0.415 nM | 0.000718 s⁻¹ | 1.73e+06 M⁻¹ s⁻¹ | 16.1 min | H4H17828P2 (antibody, human IgG4, V domains shown, H4H = human IgG4 Fc with S108P hinge mutation) VH: EVQLVESGGGLVQPGGSLRLSCAASGFTFKTYAMSWVRQAPGRGLEWVSGISGSGSTSYYADSVKGRFTISRDNYKKTLSLQMNSLRAEDTAVYYCALDIMATVGGLFNNWGQGTLVTVSS VL: not shown
7 | 0.0487 nM | 5.98e-05 s⁻¹ | 1.23e+06 M⁻¹ s⁻¹ | 193 min | ≤ 0.00328 nM | ≤ 1e-05 s⁻¹ | 3.05e+06 M⁻¹ s⁻¹ | ≥ 1160 min | 9.6 nM | 0.0341 nM | 4.24e-05 s⁻¹ | 1.24e+06 M⁻¹ s⁻¹ | 272 min | 0.00342 nM | 1e-05 s⁻¹ | 2.92e+06 M⁻¹ s⁻¹ | ≥ 1160 min | H4sH15479P (antibody, V domains shown) VH: QVQLQQWGAGLLNPSETLSLTCAVYGGAFSDYYWNWIRQPPGKGLEWIGEINHRGSTNYNPSLKSRVTISVDTSKNQFSLRMSSVTAADAAVYYCARGEDYDIWNGYYQEKWGQGTLVTVSS VL: EIVLTQSPATLSLSPGERATLSCRASQSISTYLAWYQQKPGQAPRLLIYDASKRATGIPARFSGSGSGTDFTLTISSLEPEDFVVYYCHQRSNWPLTFGGGTKVEIK
8 | 6.51 nM | 0.00697 s⁻¹ | 1.07e+06 M⁻¹ s⁻¹ | 1.7 min | 0.814 nM | 0.0019 s⁻¹ | 2.34e+06 M⁻¹ s⁻¹ | 6.1 min | 2.5 nM | 7.66 nM | 0.00772 s⁻¹ | 1.01e+06 M⁻¹ s⁻¹ | 1.5 min | 0.876 nM | 0.00157 s⁻¹ | 1.8e+06 M⁻¹ s⁻¹ | 7.3 min | H4sH15462P (antibody, V domains shown, H4sH = human IgG4 Fc with 2 or more amino acid changes as disclosed in US20140243504) VH: QVQLVQSGAEVKKPGASVKVSCKASGYTFTNYYIHWVRQAPGQGLDWMGIINPGGGNTNYAQKFLGRVTMTRDTSTTTVYMELSSLRSEDTAIYYCARENWNSYFDNWGQGTLVTVSS VL: not shown
